Data reported in patent US10314894B2, “Treatment of cardio-renal disease using PCSK6” (THE CLEVELAND CLINIC FOUNDATION, priority 2014, dated 2019).

Biological target: T1, corin WT (Homo sapiens, UniProt Q9Y5Q5)
T1 construct: expressed in transfected cells; host or cells: HEK293
T1 sequence (Q9Y5Q5 1-1042): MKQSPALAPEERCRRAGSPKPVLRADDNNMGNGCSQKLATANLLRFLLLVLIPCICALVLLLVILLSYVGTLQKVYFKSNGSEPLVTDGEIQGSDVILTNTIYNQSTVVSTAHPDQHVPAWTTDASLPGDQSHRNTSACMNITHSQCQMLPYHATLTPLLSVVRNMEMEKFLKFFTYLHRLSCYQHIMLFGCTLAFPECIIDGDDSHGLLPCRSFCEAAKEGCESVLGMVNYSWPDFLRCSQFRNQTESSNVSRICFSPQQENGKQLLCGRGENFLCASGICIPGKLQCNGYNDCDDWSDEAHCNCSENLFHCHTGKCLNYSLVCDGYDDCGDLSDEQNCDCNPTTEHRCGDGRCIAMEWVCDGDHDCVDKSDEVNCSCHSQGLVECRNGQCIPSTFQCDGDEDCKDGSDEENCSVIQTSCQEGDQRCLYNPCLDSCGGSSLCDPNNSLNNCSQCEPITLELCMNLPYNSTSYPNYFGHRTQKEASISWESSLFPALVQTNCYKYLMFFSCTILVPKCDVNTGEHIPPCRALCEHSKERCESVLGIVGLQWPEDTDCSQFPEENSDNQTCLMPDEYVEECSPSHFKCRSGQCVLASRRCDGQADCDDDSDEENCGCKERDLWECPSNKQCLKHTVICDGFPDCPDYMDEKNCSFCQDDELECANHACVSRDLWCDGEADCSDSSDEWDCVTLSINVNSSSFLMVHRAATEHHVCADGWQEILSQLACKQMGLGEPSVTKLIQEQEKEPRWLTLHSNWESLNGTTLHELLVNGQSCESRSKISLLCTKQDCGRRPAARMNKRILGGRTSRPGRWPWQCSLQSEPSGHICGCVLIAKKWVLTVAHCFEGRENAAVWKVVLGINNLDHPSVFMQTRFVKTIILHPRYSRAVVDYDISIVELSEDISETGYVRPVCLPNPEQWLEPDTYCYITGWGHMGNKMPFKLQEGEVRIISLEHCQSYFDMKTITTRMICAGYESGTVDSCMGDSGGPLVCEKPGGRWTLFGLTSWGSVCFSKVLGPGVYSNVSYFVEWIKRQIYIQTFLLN
Assay: PCSK6-mediated corin activation in HEK293 cells, corin WT
Assay type: cell-based
Conditions: Western
Text: Plasmids expressing human corin WT and mutants R801A, S985A, T555I, Q568P, T555I/Q568P, K317E, S472G and R539C were reported previously. Dong, N. et al., J Biol Chem 289, 17909-17916 (2014); Knappe et al., J Biol Chem 278, 52363-52370 (2003); Wu et al., J Biol Chem 277, 16900-16905. (2002). Plasmids expressing human PCSK1-9 were made by cloning respective cDNAs into pcNDA3.1 vector. Recombinant corin and PCSK proteins encoded by these plasmids contained a C-terminal V5 or flag tag for protein detection in Western blotting.
HEK293 and HL-1 cells were transfected with corin or PCSK6 expression plasmids. After 48-72 h, cells were lysed in a buffer containing 25 mM Tris-HCl, pH 7.4, 150 mM NaCl, 1 mM EDTA, 1% (v/v) NP-40, and 1% (v/v) protease inhibitor cocktail. Recombinant corin and PCSK6 proteins were immunoprecipitated with an anti-V5 or anti-flag antibody. Western blotting was carried out to analyze corin expression and activation or PCSK6 expression with or without reducing agents. Percentage of corin activation (corin-p vs. corin fragments) was quantified by densitometric analysis of Western blots.

PCSK6-mediated activation cleavage: detected
B1: proprotein convertase subtilisin/kexin-6 (protein, listed as Homo sapiens)
chain: MPPRAPPAPGPRPPPRAAAATDTAAGAGGAGGAGGAGGPGFRPLAPRPWRWLLLLALPAACSAPPPRPVYTNHWAVQVLGGPAEADRVAAAHGYLNLGQIGNLEDYYHFYHSKTFKRSTLSSRGPHTFLRMDPQVKWLQQQEVKRRVKRQVRSDPQALYFNDPIWSNMWYLHCGDKNSRCRSEMNVQAAWKRGYTGKNVVVTILDDGIERNHPDLAPNYDSYASYDVNGNDYDPSPRYDASNENKHGTRCAGEVAASANNSYCIVGIAYNAKIGGIRMLDGDVTDVVEAKSLGIRPNYIDIYSASWGPDDDGKTVDGPGRLAKQAFEYGIKKGRQGLGSIFVWASGNGGREGDYCSCDGYTNSIYTISVSSATENGYKPWYLEECASTLATTYSSGAFYERKIVTTDLRQRCTDGHTGTSVSAPMVAGIIALALEANSQLTWRDVQHLLVKTSRPAHLKASDWKVNGAGHKVSHFYGFGLVDAEALVVEAKKWTAVPSQHMCVAASDKRPRSIPLVQVLRTTALTSACAEHSDQRVVYLEHVVVRTSISHPRRGDLQIYLVSPSGTKSQLLAKRLLDLSNEGFTNWEFMTVHCWGEKAEGQWTLEIQDLPSQVRNPEKQGKLKEWSLILYGTAEHPYHTFSAHQSRSRMLELSAPELEPPKAALSPSQVEVPEDEEDYTAQSTPGSANILQTSVCHPECGDKGCDGPNADQCLNCVHFSLGSVKTSRKCVSVCPLGYFGDTAARRCRRCHKGCETCSSRAATQCLSCRRGFYHHQEMNTCVTLCPAGFYADESQKNCLKCHPSCKKCVDEPEKCTVCKEGFSLARGSCIPDCEPGTYFDSELIRCGECHHTCGTCVGPGREECIHCAKNFHFHDWKCVPACGEGFYPEEMPGLPHKVCRRCDENCLSCAGSSRNCSRCKTGFTQLGTSCITNHTCSNADETFCEMVKSNRLCERKLFIQFCCRTCLLAG
modifications: C-terminal FLAG tag
